Key:
[1] = molecular target: T1, RAC incubated with LPMO9B (Thermothelomyces thermophilus, UniProt G2QCJ3); assay: RAC hydrolysis assay with LPMO9B and PPO2, PPO7 or AbTyr in the presence of sinapic acid or syringic acid; assay type: biochemical, Myceliophthora thermophila; details: LPMO9B 5 μg/ml alone = 100%, or with added enzyme, pH 5.0, 50° C., 24 h
T1 construct: made in house; host or cells: Myceliophthora thermophila C1 strain W1L#100.1Δpyr5ΔAlp1
T1 sequence (G2QCJ3 19-323): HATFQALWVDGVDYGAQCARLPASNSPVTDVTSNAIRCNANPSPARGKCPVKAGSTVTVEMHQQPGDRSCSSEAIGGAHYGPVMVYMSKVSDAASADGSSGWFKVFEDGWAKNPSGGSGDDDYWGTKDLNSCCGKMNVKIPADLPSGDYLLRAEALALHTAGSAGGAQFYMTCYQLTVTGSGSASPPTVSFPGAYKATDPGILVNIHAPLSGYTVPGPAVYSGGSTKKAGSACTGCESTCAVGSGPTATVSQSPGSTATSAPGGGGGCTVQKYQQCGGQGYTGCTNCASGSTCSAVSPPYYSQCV
Procedure: Reducing agents sinapic acid and syringic acid were obtained from Sigma-Aldrich (St. Louis, Mo., USA). RAC was prepared from Avicel by swelling it in phosphoric acid, (Zhang Y H P, Cui J, Lynd L R, & Kuang L R (2006) A transition from cellulose swelling to cellulose dissolution by o-phosphoric acid: Evidence from enzymatic hydrolysis and supramolecular structure. Biomacromolecules 7(2):644-648.). RAC was dissolved in 50 mM phospate buffer (pH 5.0) to a final concentration of 1.5 mg/ml. Copper chloride was added to a final concentration of 2.5 μM and dimethoxy containg reducing agent sinapic acid or syringic acid to a final concentration of 2 mM. LPMO9B (5 μg/ml) with or without PPO2 (5 μg/ml), PPO7 (5 μg/ml) or AbTyr (7.5 U/ml) were added and incubated for 24 h at 50° C. in a head-over-tail rotator in portions of 1 mL total volume (Stuart® rotator, Bibby Scientific LTD, Stone, UK) at 20 rpm. Products were analysed by HPAEC and MALDI-TOF MS as described previously. (Frommhagen M, Sforza S, Westphal A H, Visser J, Hinz S W, Koetsier M J et al. Discovery of the combined oxidative cleavage of plant xylan and cellulose by a new fungal polysaccharide monooxygenase. Biotechnology for Biofuels. 2015; 8:101. doi:10.1186/s13068-015-0284-1). The Activity denoted as “Activity*” represents total release of non-oxidized and C1-oxidized gluco-oligosaccharides from RAC incubated with LPMO9B in the presence of sinapic or syringic acid as a reducing agent and with addition of either AbTyr, PPO7 or PPO2. […] Standard deviations were less than 2%.

[2] = Catechol oxidase activity assay: initial rate of 3-methoxycatechol oxidation at 400 nm (pH, copper and temperature optima); assay type: biochemical
Procedure: PPO activity was determined by measuring the initial rate of 3-methoxycatechol oxidation at 400 nm (extinction coefficient used: ε 1200 M^−1cm^−1). One unit of activity is defined as the amount of PPO activity that oxidizes 1 μmol of 3-methoxycatechol to quinone per minute. Substrate was used at a concentration of 4 mM.
The pH optima were determined by measuring the initial rate of 3-methoxycatechol oxidation with varying pHs, at room temperature and using a CuSO4 concentration of 10 μM. The pH was varied in the range of pH3-9 using Carmody buffers. Enzyme loading was applied resulting in A400 absorbance values in the range of 0.1-1. Protein concentration was determined using the BCA method.
Optimal copper concentrations for the PPOs were determined at the optimal pH by varying the concentration of CuSO4 in the range of 1-1000 μM. In these experiments the pH was controlled using 50 mM Bis-Tris buffer pH 7.0.
Temperature optima were determined by measuring A400 absorbance after 1 h incubation at temperatures in the range of 20 to 70° C. In these experiments the pH was controlled using 50 mM Bis-Tris buffer pH 7.0. Copper concentrations of (20 or 50 μM) were used to prevent chemical oxidation as background activity at higher copper concentrations.

[3] = Conversion of syringic acid by purified PPO, difference absorbance spectra after 24 h; assay type: biochemical; details: 12 mM syringic acid, purified enzyme 0.048 g/L, pH 6.5, 10 μM CuSO4, room temperature
Procedure: Syringic acid (12 mM, 2.38 g/L) was incubated with PPO7 and PPO2 from Example 5 (0.048 g/L, 2% loading (w/w)) in 50 mM BisTris buffer pH 6.5 with 10 μM CuSO4. Blank prepared without the addition of enzyme was included. Incubations were performed in HPLC vials with a total of 750 μL reaction volume at room temperature for 24 h. The reaction was stopped by adding 21 μL 1M HCl to lower the pH to ˜3. Samples were filtrated and absorbance spectra were measured (230-1000 nm, 2 nm interval). […] It is to be noted that any change in absorbance in time indicates syringic acid conversion.

B1: PPO7: Myceliophthora thermophila C1 polyphenoloxidase with demethylating activity, mature form SEQ ID NO: 45 (protein, listed as Myceliophthora thermophila)
chain: NPMHKRWKPNAPRNPDFPLDEVDKLEESIMPNVEAWMSKRPAKYSNCTLENAGIRREWSDLSVDERKEYISAVLCLQSKPSKIPEGEVPGALSRFDDFVATHMTMAGQLHSPTNLFAAHRYFIHAYEKALREECGYKGYQPYMNYDRYADDPLNTPLFDGSDSSMSGNGGPYNYSGIPQPFPKPYNLIPPAGGGGCVTEGPFRDMVVSLGPKGGLFHDIPRNPRADGLGSNPRCLRRDVNKYSARGARANYTYSAIMDNPDIDSFYNRYMGMPQLKGDPYPWGLHSSGHYLIGGDPGGDFYCSPGDPLFYFHHGMLDRVWWIWQMQDPENRVQAVPGTNTMPMPPLMAANLESEAAATTTHKRAVNVSDLVVDLGWTAPPVKLVDLNEQLGGLGGELCYIYV
- Activity: total release of non-oxidized and C1-oxidized gluco-oligosaccharides from RAC ([1]; reducing agent sinapic acid 2 mM): 195%
- Activity: total release of non-oxidized and C1-oxidized gluco-oligosaccharides from RAC ([1]; reducing agent syringic acid 2 mM): 142%
- pHopt ([2]; 3-methoxycatechol oxidation, room temperature, 10 μM CuSO4, Carmody buffers pH3-9): 7.0
- T range ([2]; >50% of maximum activity): 20-55 °C
- pH range ([2]; >50% of maximum activity): 6.5-8.0
- [CuSO4] range ([2]; >90% of maximum activity): 100 to 1000 µM
- Topt ([2]; A400 after 1 h incubation, 20 to 70° C., 50 mM Bis-Tris pH 7.0, 20 or 50 μM copper): 40 °C
- [CuSO4]opt ([2]; at optimal pH, 50 mM Bis-Tris buffer pH 7.0, CuSO4 varied 1-1000 μM): 400 µM
- Spectral change caused by reaction products [3]: spectral increase between 300 and 500 nm
- Syringic acid conversion: negative peak in the difference absorbance spectra between 230 and 300 nm [3]: more significant for PPO7 than for PPO2
